# IntAct's records for PubMed 17012248
# B1: Sialic acid-binding Ig-like lectin 14 (Homo sapiens), Q08ET2 (parent)
# chain: MLPLLLLPLLWGGSLQEKPVYELQVQKSVTVQEGLCVLVPCSFSYPWRSWYSSPPLYVYWFRDGEIPYYAEVVATNNPDRRVKPETQGRFRLLGDVQKKNCSLSIGDARMEDTGSYFFRVERGRDVKYSYQQNKLNLEVTALIEKPDIHFLEPLESGRPTRLSCSLPGSCEAGPPLTFSWTGNALSPLDPETTRSSELTLTPRPEDHGTNLTCQVKRQGAQVTTERTVQLNVSYAPQNLAISIFFRNGTGTALRILSNGMSVPIQEGQSLFLACTVDSNPPASLSWFREGKALNPSQTSMSGTLELPNIGAREGGEFTCRVQHPLGSQHLSFILSVQRSSSSCICVTEKQQGSWPLVLTLIRGALMGAGFLLTYGLTWIYYTRCGGPQQSRAERPG
# Variants of: B1
# Conditions: with tyobp_human TYROBP
row,effect of a mutation on the interaction,Variant
1,decreasing interaction,R362A
